# Data reported in paper PMC5387714.
# Key:
# Phe176 CD16a (human) [1] = molecular target: Phe176 CD16a (human) (UniProt P08637)
# Human FcRn (human) = Human FcRn (human) (UniProt P55899); assay: MST; ligands (HER2, CD16a, FcRn) labelled with RED-NHS; 10 μL labelled ligand mixed with 10 μL gradient mAb; Monolith NT.115, 40% IR-laser power; fit with the Hill equation in Prism
# Phe176 CD16a (human) [2] = molecular target: Phe176 CD16a (human) (UniProt P08637); assay: as above
# Val176 CD16a (human) = Val176 CD16a (human) (UniProt P08637); assay: as above
# UniProt P55899, sequence (P55899 24-297): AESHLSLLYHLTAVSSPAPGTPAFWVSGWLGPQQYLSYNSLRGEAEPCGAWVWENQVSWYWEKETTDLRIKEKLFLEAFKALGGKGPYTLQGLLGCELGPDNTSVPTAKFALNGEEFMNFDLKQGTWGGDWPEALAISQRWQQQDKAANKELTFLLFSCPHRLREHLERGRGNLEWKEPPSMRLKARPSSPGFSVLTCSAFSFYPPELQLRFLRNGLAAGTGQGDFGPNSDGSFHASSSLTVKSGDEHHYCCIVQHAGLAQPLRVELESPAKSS
substance,measurement,setting,value
Pertuzumab^Fuc−SA− (antibody),"ADCC (LDH release), SK-BR-3 target cells, human PBMCs as effector cells, E/T 50/1; fold against pertuzumab^Fuc+SA+; allotype of the donors' FcγRIIIa not stated",Phe176 CD16a (human) [1],20 fold
same,Kd,Human FcRn (human),0.82 nM
same,Kd,Phe176 CD16a (human) [2],0.13 nM
same,Kd,Val176 CD16a (human),0.02 nM
Pertuzumab^Fuc+SA− (antibody),Kd,Human FcRn (human),0.83 nM
same,Kd,Phe176 CD16a (human) [2],0.45 nM
Pertuzumab^Fuc+SA+ (antibody),Kd,Human FcRn (human),0.86 nM
same,Kd,Phe176 CD16a (human) [2],1.31 nM
same,Kd,Val176 CD16a (human),0.35 nM
Pertuzumab^Fuc−SA+ (antibody),Kd,Human FcRn (human),0.84 nM
same,Kd,Phe176 CD16a (human) [2],0.29 nM
